Data from publication PMC8154891, “TAPBPR promotes antigen loading on MHC-I molecules using a peptide trap” (Nature Communications, 2021).
Values joined by “and” are separate entries in the source; they are usually repeats but may differ in a detail not shown here. Identical values can stand only once.

What was measured:
[1] = molecular target: T1, HLA-A*02:01/hβ2m (empty MHC-I released from TAPBPR^WT complex) (Homo sapiens, UniProt P04439, D140Y/D185E/D98H/E176V/E277Q/G131W/G231S/I119V/I121R/I166T/I218V/L300P/L318F/N151K/N90K/P208A/P217A/Q86G/Q94H/R138H/R169H/T345S); assay: ITC, KD2,app: peptide titrated into peptide-deficient HLA-A*02:01/hβ2m/TAPBPR^WT complex, no excess TAPBPR; type: binding; conditions: ~50–100 μM peptide into ~15 μM peptide-deficient complex, 50 mM NaCl, 20 mM sodium phosphate pH 7.2, one-site fit, one technical replicate, error from fit
T1 construct: DNA plasmid constructs encoding the luminal domain of human HLA-A*02:01 (heavy chain); made in house; TAPBPR: Drosophila S2 cells

[2] = molecular target: T2, peptide-deficient HLA-A*02:01/hβ2m/TAPBPR^WT complex (Homo sapiens, UniProt P04439, D140Y/D185E/D98H/E176V/E277Q/G131W/G231S/I119V/I121R/I166T/I218V/L300P/L318F/N151K/N90K/P208A/P217A/Q86G/Q94H/R138H/R169H/T345S); assay: ITC, KD4: peptide titrated into empty HLA-A*02:01/TAPBPR^WT complex with excess TAPBPR; type: binding; conditions: ~150–200 μM peptide into ~15 μM peptide-deficient complex and 50 μM excess TAPBPR, pH 7.2, one-site fit, error from fit
T2 construct: DNA plasmid constructs encoding the luminal domain of human HLA-A*02:01 (heavy chain); made in house; TAPBPR: Drosophila S2 cells

[3] = molecular target: T3, peptide-deficient HLA-A*02:01/hβ2m/TAPBPR^ΔG24-R36 complex (Homo sapiens, UniProt P04439, D140Y/D185E/D98H/E176V/E277Q/G131W/G231S/I119V/I121R/I166T/I218V/L300P/L318F/N151K/N90K/P208A/P217A/Q86G/Q94H/R138H/R169H/T345S); assay: ITC, KD4: peptide titrated into empty HLA-A*02:01/TAPBPR^ΔG24-R36 complex with excess TAPBPR; type: binding; conditions: ~150–200 μM peptide into ~15 μM peptide-deficient complex and 50 μM excess TAPBPR, pH 7.2, one-site fit, error from fit
T3 construct: DNA plasmid constructs encoding the luminal domain of human HLA-A*02:01 (heavy chain); made in house

[4] = molecular target: T4, HLA-A*02:01/hβ2m (empty MHC-I released from TAPBPR^ΔG24-R36 complex) (Homo sapiens, UniProt P04439, D140Y/D185E/D98H/E176V/E277Q/G131W/G231S/I119V/I121R/I166T/I218V/L300P/L318F/N151K/N90K/P208A/P217A/Q86G/Q94H/R138H/R169H/T345S); assay: ITC, KD2,app: peptide titrated into peptide-deficient HLA-A*02:01/hβ2m/TAPBPR^ΔG24-R36 complex, no excess TAPBPR; type: binding; conditions: ~50–100 μM peptide into ~15 μM peptide-deficient complex, pH 7.2, one-site fit, one technical replicate, error from fit
T4 construct: DNA plasmid constructs encoding the luminal domain of human HLA-A*02:01 (heavy chain); made in house

HLA-A*02:01/hβ2m = conditions: DSF, 7 μM HLA-A*02:01/hβ2m in complex with the peptide, 10× SYPRO orange, 1 °C/min, pH 7.2; n = 3 technical replicates
[5] = molecular target: TAMRA-TAX9 in complex with HLA-A*02:01 (hβ2m) (human | HTLV-1); assay: fluorescence polarisation
[6] = molecular target: peptide-deficient (empty) HLA-A*02:01/hβ2m (human); assay: ITC
[7] = molecular target: TAPBPR^ΔG24-R36 (luminal domain, deletion of residues G24-R36) (human); assay: ITC
[8] = molecular target: TAPBPR^WT (TAP-binding protein related, wild-type, luminal domain) (human); assay: ITC
MHC-I = conditions: read-out: estimated KD of the MHC-I/TAPBPR interaction; SPR experiments of an analogous system; cited from earlier work
HLA-A*01:01 = HLA-A*01:01 (Homo sapiens, UniProt P04439, A114D/A174V/A182V/D101N/D185E/E176A/E190D/L180R/Q94H/R68K/S129P/T187R/V100A/V91M/W191G); conditions: yeast-displayed TAPBPR, flow cytometry
TAX8/HLA-A*02:01/hβ2m = assay: FP, KD3: TAPBPR titrated into TAMRA-TAX9 and TAX8/HLA-A*02:01/hβ2m; type: binding, human; conditions: TAPBPR (0–80 μM) titrated into 1 nM TAMRA-TAX9 and 50 nM TAX8/HLA-A*02:01/hβ2m; 25 °C, pH 7.2, 0.05% tween-20; read-out: KD3 from FP

CC[C@H](C)[C@H](NC(=O)[C@H](CCC(=O)O)NC(=O)[C@H](CC(C)C)NC(=O)[C@H](CC(C)C)NC(=O)[C@@H](N)CCCCN)C(=O)N1CCC[C@H]1C(=O)N[C@@H](CC(=O)O)C(=O)N1CCC[C@H]1C(=O)N[C@@H](CC(=O)O)C(=O)N[C@@H](CCCCN)C(=O)N[C@@H](CC(N)=O)C(=O)N[C@@H](Cc1c[nH]c2ccccc12)C(=O)N[C@@H](C)C(=O)N[C@H](C(=O)N[C@@H](CC(C)C)C(=O)O)[C@@H](C)O [KLL15]
Kd [1]: 383 ± 22 nM | Kd [2]: 21600 ± 7000 nM | Kd [3]: 49500 ± 8600 nM | Kd [4]: 334 ± 20 nM

LLFGGGGYPVYV [TAX12]
Tm of pMHC-I complex (HLA-A*02:01/hβ2m): 53.2 °C

LLFGGYPVYV [TAX10]
Tm of pMHC-I complex (HLA-A*02:01/hβ2m): 58.9 °C

TAPBPR^WT (TAP-binding protein related, wild-type, luminal domain) (domain or fragment)
Kd [5]: 2000 nM | Kd [6]: 37.4 nM and 30.6 nM and 38.8 nM

TAPBPR^ΔALAS (luminal domain, deletion of residues A29-S32) (domain or fragment)
Kd [5]: 2000 nM

TAPBPR^ΔG24-R36 (luminal domain, deletion of residues G24-R36) (domain or fragment)
Kd [5]: 2000 nM | Kd [6]: 13.9 nM and 11.1 nM and 14.2 nM

TAX9/HLA-A*02:01/hβ2m (from UniProt P61769 21-119) (peptide-MHC)
Kd [7]: 1800 nM | Kd [8]: 1900 nM | stoichiometry N [8]: 1.02

B1: TAPBPR WT: wild-type human TAPBPR; luminal domain from S2 cells in vitro, FLAG-tagged full length in Expi293F cells (protein, UniProt Q9BX59 19-468, looked up)
Tapasin-related protein: AETKPHPAEGQWRAVDVVLDCFLAKDGAHRGALASSEDRARASLVLKQVPVLDDGSLEDFTDFQGGTLAQDDPPIIFEASVDLVQIPQAEALLHADCSGKEVTCEISRYFLQMTETTVKTAAWFMANMQVSGGGPSISLVMKTPRVTKNEALWHPTLNLPLSPQGTVRTAVEFQVMTQTQSLSFLLGSSASLDCGFSMAPGLDLISVEWRLQHKGRGQLVYSWTAGQGQAVRKGATLEPAQLGMARDASLTLPGLTIQDEGTYICQITTSLYRAQQIIQLNIQASPKVRLSLANEALLPTLICDIAGYYPLDVVVTWTREELGGSPAQVSGASFSSLRQSVAGTYSISSSLTAEPGSAGATYTCQVTHISLEEPLGASTQVVPPERRTALGVIFASSLFLLALMFLGLQRRQAPTGLGLLQAERWETTSCADTQSSHLHEDRTARVSQPS
modifications: FLAG tag
Kd (MHC-I): ~190 nM | binding of HLA-A*01:01 tetramers (HLA-A*01:01): No binding | Kd (TAX8/HLA-A*02:01/hβ2m): ~2000 nM
